Measurements published in article PMC5461112, “Structure analyses reveal a regulated oligomerization mechanism of the PlexinD1/GIPC/myosin VI complex” (eLife, 2017).
Several values for one entry are separate records, joined by “and”; a condition that tells them apart may be missing. Identical values can stand only once.

T1: helical cargo-binding domain (HCBD) of mouse myosin VI (residues 1052-1096), GST removed
T1 chain: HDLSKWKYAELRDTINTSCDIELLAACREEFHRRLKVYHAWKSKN

T2: mouse PlexinD1 cytoplasmic region with the JM-segment (residues 1297-1925) (mouse, UniProt Q3UH93 1297-1925)
T2 construct: mouse PlexinD1, cytoplasmic region with the juxtamembrane segment, residues 1297-1925; also called PlexinD1_(cyto)(with JM); PlxD1; not shown: His6, N-terminal, cleaved
T2 sequence (looked up): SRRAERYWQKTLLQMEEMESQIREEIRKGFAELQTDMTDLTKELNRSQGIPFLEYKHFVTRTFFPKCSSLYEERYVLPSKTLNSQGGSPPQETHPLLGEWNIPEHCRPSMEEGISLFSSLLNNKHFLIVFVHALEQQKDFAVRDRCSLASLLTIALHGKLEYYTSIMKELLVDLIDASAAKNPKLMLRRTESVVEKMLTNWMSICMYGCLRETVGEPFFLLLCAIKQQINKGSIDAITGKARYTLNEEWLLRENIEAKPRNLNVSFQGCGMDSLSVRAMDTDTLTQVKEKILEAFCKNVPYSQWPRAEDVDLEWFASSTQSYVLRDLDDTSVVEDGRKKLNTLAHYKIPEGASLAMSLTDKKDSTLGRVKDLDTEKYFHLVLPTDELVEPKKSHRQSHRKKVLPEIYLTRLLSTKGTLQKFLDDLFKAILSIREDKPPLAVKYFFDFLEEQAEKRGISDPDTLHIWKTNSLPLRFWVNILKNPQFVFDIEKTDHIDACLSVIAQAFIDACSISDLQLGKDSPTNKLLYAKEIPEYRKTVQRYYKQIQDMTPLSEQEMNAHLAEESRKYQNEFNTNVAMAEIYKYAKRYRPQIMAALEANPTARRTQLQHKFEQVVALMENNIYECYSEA


Key:
[1] = biological target: mouse GIPC1 GH1-PDZ-GH2 (version not told; pull-down and gel filtration) (mouse) (UniProt Q9Z0G0); test: SEC; gel filtration chromatography of the GH1-PDZ-GH2 proteins during purification
[2] = biological target: mouse GIPC3 GH1-PDZ-GH2 (residues 20-307) (mouse); test: as above
[3] = biological target: T1, helical cargo-binding domain (HCBD) of …; test: sedimentation velocity analytical ultracentrifugation (AUC); conditions: chain shown with the change, 150 μM, read off a plot
[4] = biological target: helical cargo-binding domain (HCBD) of mouse myosin VI (residues 1052-1096), GST removed (mouse); test: AUC; sedimentation velocity of GH2 and HCBD mixed 1:1 at various concentrations (mutants at 150 μM); multi-signal analysis; 10 mM Tris pH 8.0, 150 mM NaCl, 1 mM TCEP; 4°C, 50,000 rpm
[5] = biological target: the molecule itself; test: crystal structure; apo-GIPC1 (residues 52-327), 5 mg/ml; 0.2 M Li2SO4, 0.1 M HEPES pH 7.5, 25% (w/v) PEG3350; 20°C
[6] = biological target: the molecule itself; test: crystal structure; PlexinD1cyto and GIPC1 (residues 52-333) mixed equimolar, 5 mg/ml; 0.1 M Bis-Tris pH 5.5, 2 M (NH4)2SO4; 20°C
[7] = biological target: T2, mouse PlexinD1 cytoplasmic region with …; test: pull-down; three proteins mixed: GST-HCBD, a GIPC and PlexinD1cyto (with JM), each 1 μM; glutathione beads; 10 mM Tris pH 8.0, 150 mM NaCl, 1 mM DTT; room temperature; Coomassie-stained SDS-PAGE; conditions: both partners purified
[8] = biological target: the molecule itself; test: SEC; gel filtration chromatography of the GH1-PDZ-GH2 proteins during purification
[9] = 500 mM salt in the buffer, parent: est. 4.3

| other: s20,ww-value of the complex ([3]; parent: est. 3.8) [S] | Molecule | also measured |
| --- | --- | --- |
| 1.5 | mouse GIPC1 GH2 domain (residues 258-333), Q9Z0G0 M276E; G323Q (protein) SAFEEKAIEKVDDLLESYEGIRDTELAATMVELGKDKRNPDELAEALDERLGDFAFPDEFVFDVWQAIGDAKVGRY | – |
| 2.4 | mouse GIPC1 GH2 domain (residues 258-333), Q9Z0G0 F319S (protein) SAFEEKAIEKVDDLLESYMGIRDTELAATMVELGKDKRNPDELAEALDERLGDFAFPDEFVSDVWGAIGDAKVGRY | – |
| 1.3 | mouse GIPC1 GH2 domain (residues 258-333), Q9Z0G0 Y275A; M276E; I278Q; G323Q (protein) SAFEEKAIEKVDDLLESAEGQRDTELAATMVELGKDKRNPDELAEALDERLGDFAFPDEFVFDVWQAIGDAKVGRY | – |
| 1.6 | mouse GIPC1 GH2 domain (residues 258-333), Q9Z0G0 M276E; F319S (protein) SAFEEKAIEKVDDLLESYEGIRDTELAATMVELGKDKRNPDELAEALDERLGDFAFPDEFVSDVWGAIGDAKVGRY | – |
| 1.8 | mouse GIPC1 GH2 domain (residues 258-333), Q9Z0G0 G323Q (protein) SAFEEKAIEKVDDLLESYMGIRDTELAATMVELGKDKRNPDELAEALDERLGDFAFPDEFVFDVWQAIGDAKVGRY | – |

More lines, now with the values behind:

| Molecule | other: s20,ww-value of the complex ([3]; parent: est. 3.8) [S] | also measured |
| --- | --- | --- |
| mouse GIPC1 GH1-PDZ-GH2 (version not told; pull-down and gel filtration) (from UniProt Q9Z0G0 52-333) (domain or fragment) | – | stoichiometry N [1]: 2 |
| mouse GIPC3 GH1-PDZ-GH2 (residues 20-307) (domain or fragment) | – | stoichiometry N [2]: 2 |
| mouse GIPC1 linker-GH2 (residues 217-333), Q9Z0G0 Y275A; M276E; I278Q; G323Q (protein) AFDMISQRSAGGHPGSGPQLGTGRGTLRLRSRGPATVEDLPSAFEEKAIEKVDDLLESAEGQRDTELAATMVELGKDKRNPDELAEALDERLGDFAFPDEFVFDVWQAIGDAKVGRY | – | other: s20,ww-value of the complex [3, 9]: 1.4 S |
| mouse GIPC1 linker-GH2 (residues 217-333), Q9Z0G0 Y275A; M276E; G323Q (protein) AFDMISQRSAGGHPGSGPQLGTGRGTLRLRSRGPATVEDLPSAFEEKAIEKVDDLLESAEGIRDTELAATMVELGKDKRNPDELAEALDERLGDFAFPDEFVFDVWQAIGDAKVGRY | – | other: s20,ww-value of the complex [3, 9]: 1.4 S |
| mouse GIPC1 linker-GH2 (residues 217-333), Q9Z0G0 Y275A; M276E; I278Q (protein) AFDMISQRSAGGHPGSGPQLGTGRGTLRLRSRGPATVEDLPSAFEEKAIEKVDDLLESAEGQRDTELAATMVELGKDKRNPDELAEALDERLGDFAFPDEFVFDVWGAIGDAKVGRY | – | other: s20,ww-value of the complex [3, 9]: 1.4 S |
| mouse GIPC1 linker-GH2 (residues 217-333), Q9Z0G0 Y275A; M276E (protein) AFDMISQRSAGGHPGSGPQLGTGRGTLRLRSRGPATVEDLPSAFEEKAIEKVDDLLESAEGIRDTELAATMVELGKDKRNPDELAEALDERLGDFAFPDEFVFDVWGAIGDAKVGRY | – | other: s20,ww-value of the complex [3, 9]: 1.4 S |
| mouse GIPC1 GH2 domain (residues 258-333), Q9Z0G0 M276E (protein) SAFEEKAIEKVDDLLESYEGIRDTELAATMVELGKDKRNPDELAEALDERLGDFAFPDEFVFDVWGAIGDAKVGRY | 3.3 | – |
| mouse GIPC1 GH2 domain (residues 258-333) (domain or fragment) SAFEEKAIEKVDDLLESYMGIRDTELAATMVELGKDKRNPDELAEALDERLGDFAFPDEFVFDVWGAIGDAKVGRY | – | stoichiometry N [4]: 1 and 1.1 |
| mouse GIPC1 GH2 domain (residues 258-333), Q9Z0G0 Y275A; M276E (protein) SAFEEKAIEKVDDLLESAEGIRDTELAATMVELGKDKRNPDELAEALDERLGDFAFPDEFVFDVWGAIGDAKVGRY | 1.3 | – |
| mouse GIPC1 GH2 domain (residues 258-333), Q9Z0G0 Y275A; G323Q (protein) SAFEEKAIEKVDDLLESAMGIRDTELAATMVELGKDKRNPDELAEALDERLGDFAFPDEFVFDVWQAIGDAKVGRY | 1.6 | – |
| mouse GIPC1 GH2 domain (residues 258-333), Q9Z0G0 Y275A (protein) SAFEEKAIEKVDDLLESAMGIRDTELAATMVELGKDKRNPDELAEALDERLGDFAFPDEFVFDVWGAIGDAKVGRY | 3 | – |
| mouse GIPC1 GH2 domain (residues 258-333), Q9Z0G0 I278Q; G323Q (protein) SAFEEKAIEKVDDLLESYMGQRDTELAATMVELGKDKRNPDELAEALDERLGDFAFPDEFVFDVWQAIGDAKVGRY | 1.8 | – |
| mouse GIPC1 GH2 domain (residues 258-333), Q9Z0G0 Y275A; M276E; G323Q (protein) SAFEEKAIEKVDDLLESAEGIRDTELAATMVELGKDKRNPDELAEALDERLGDFAFPDEFVFDVWQAIGDAKVGRY | 1.3 | – |
| mouse GIPC1 GH2 domain (residues 258-333), Q9Z0G0 Y275A; M276E; I278Q (protein) SAFEEKAIEKVDDLLESAEGQRDTELAATMVELGKDKRNPDELAEALDERLGDFAFPDEFVFDVWGAIGDAKVGRY | 1.3 | – |
| mouse GIPC1 GH2 domain (residues 258-333), Q9Z0G0 I278Q (protein) SAFEEKAIEKVDDLLESYMGQRDTELAATMVELGKDKRNPDELAEALDERLGDFAFPDEFVFDVWGAIGDAKVGRY | 2.1 | – |
| mouse GIPC1 GH1-PDZ-GH2 version 2 (residues 52-327) (domain or fragment, UniProt Q9Z0G0 52-327, looked up, mouse GIPC1, GH1-PDZ-GH2 domains, version 2, residues 52-327; the dimer peak of gel filtration was collected; also called apo-GIPC1; not shown: His6, N-terminal, cleaved) AALRPRLVFHTQLAHGSPTGRIEGFTNVKELYGKIAEAFRLPAAEVMFCTLNTHKVDMDKLLGGQIGLEDFIFAHVKGQRKEVEVFKSEEALGLTITDNGAGYAFIKRIKEGSVIDHIQLISVGDMIEAINGQSLLGCRHYEVARLLKELPRGRTFTLKLTEPRKAFDMISQRSAGGHPGSGPQLGTGRGTLRLRSRGPATVEDLPSAFEEKAIEKVDDLLESYMGIRDTELAATMVELGKDKRNPDELAEALDERLGDFAFPDEFVFDVWGAIGD | – | binding result [5]: binds |
| mouse GIPC1 GH1-PDZ-GH2 version 1 (residues 52-333) (domain or fragment, UniProt Q9Z0G0 52-333, looked up, mouse GIPC1, GH1-PDZ-GH2 domains, version 1, residues 52-333; the PDZ-GH2 linker and GH2 domain are invisible in the map; not shown: His6, N-terminal, cleaved) AALRPRLVFHTQLAHGSPTGRIEGFTNVKELYGKIAEAFRLPAAEVMFCTLNTHKVDMDKLLGGQIGLEDFIFAHVKGQRKEVEVFKSEEALGLTITDNGAGYAFIKRIKEGSVIDHIQLISVGDMIEAINGQSLLGCRHYEVARLLKELPRGRTFTLKLTEPRKAFDMISQRSAGGHPGSGPQLGTGRGTLRLRSRGPATVEDLPSAFEEKAIEKVDDLLESYMGIRDTELAATMVELGKDKRNPDELAEALDERLGDFAFPDEFVFDVWGAIGDAKVGRY | – | binding result [6]: binds |
| mouse GIPC2 GH1-PDZ-GH2 (residues 40-314) (domain or fragment, UniProt Q9Z2H7 40-314, looked up, mouse GIPC2, GH1-PDZ-GH2 domains, residues 40-314; not shown: His6, N-terminal, cleaved) RKLVFHAQLAHGSATGRVEDFSSISELYAKIAGVFEIAPSEILFCTLNTPKIDMGKLLGGQLGLEDFIFAHVKGTKKEVNVYKSEDSLGLTITDNGVGYAFIKRIKDGSTIDSVKTICVGDHIECINGENIVGWRHFEVAKKLKELKKEELFTLQLIEPKKAFEIGPRSKAGKTSTEKIGTSRGTLRLRSKGPATVEELPSEAKAKAIGKVDDLLELYMGIRDIDLATTMFEAGKDKSNPDEFAVALDETLGDFAFPDEFLFDVWGAISDMKQGR | – | binding result [7]: binds; stoichiometry N [8]: 2 |
